Measured values reported in article PMC2756588.

Key:
Test in all cases: SPOT array
Sho1, P40073 = settings: median of control spots 1148
Boi1, P38041 = target: T1, Boi1, P38041; settings: median of control spots 1162
T1 sequence (P38041 1-86, looked up): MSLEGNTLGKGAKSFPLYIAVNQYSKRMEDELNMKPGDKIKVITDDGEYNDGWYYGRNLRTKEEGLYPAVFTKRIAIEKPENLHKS

Fus1, P11710 = target: T2, Fus1, P11710; settings: median of control spots 1200
T2 sequence (P11710 432-512, looked up): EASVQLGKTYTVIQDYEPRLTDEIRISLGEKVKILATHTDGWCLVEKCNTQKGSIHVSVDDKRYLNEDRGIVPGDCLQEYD

Bem1-2, P29366 = settings: median of control spots 4347
Chain of Bem1-2, P29366 (P29366 139-227): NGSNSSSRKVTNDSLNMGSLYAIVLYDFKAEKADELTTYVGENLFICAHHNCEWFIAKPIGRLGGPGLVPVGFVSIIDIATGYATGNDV

Bud14, P27637 = target: T3, Bud14, P27637; settings: median of control spots 956
T3 sequence (P27637 247-328, looked up): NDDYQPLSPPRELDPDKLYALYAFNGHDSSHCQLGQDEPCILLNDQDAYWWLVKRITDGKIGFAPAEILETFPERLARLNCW

Nbp2, Q12163 = target: T4, Nbp2, Q12163; settings: median of control spots 357
T4 sequence (Q12163 103-180, looked up): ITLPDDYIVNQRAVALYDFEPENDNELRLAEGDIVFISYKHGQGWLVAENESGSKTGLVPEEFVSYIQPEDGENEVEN

Myo3, P36006 = settings: median of control spots 468
Rvs167, P39743 = settings: median of control spots 2707
Chain of Rvs167, P39743 (P39743 419-482): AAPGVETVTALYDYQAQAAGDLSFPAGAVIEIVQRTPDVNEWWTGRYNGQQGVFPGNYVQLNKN

GST = settings: median of control spots 978
Cdc25, P04821 = target: T5, Cdc25, P04821; settings: median of control spots 969
T5 sequence (P04821 50-136, looked up): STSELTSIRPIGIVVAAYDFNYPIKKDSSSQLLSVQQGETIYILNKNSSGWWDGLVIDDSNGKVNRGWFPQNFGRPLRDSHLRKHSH

Myo5, Q04439 = target: T6, Myo5, Q04439; settings: median of control spots 471
T6 sequence (Q04439 1072-1160, looked up): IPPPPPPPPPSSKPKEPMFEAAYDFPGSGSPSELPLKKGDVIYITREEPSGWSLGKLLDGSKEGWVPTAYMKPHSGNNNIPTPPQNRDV

Pex13, P80667 = target: T7, Pex13, P80667; settings: median of control spots 1341
T7 sequence (P80667 295-386, looked up): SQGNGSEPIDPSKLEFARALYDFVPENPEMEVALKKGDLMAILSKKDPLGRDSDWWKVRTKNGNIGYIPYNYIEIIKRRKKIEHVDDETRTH

Bem1-1, P29366 = settings: median of control spots 4282
Chain of Bem1-1, P29366 (P29366 55-141): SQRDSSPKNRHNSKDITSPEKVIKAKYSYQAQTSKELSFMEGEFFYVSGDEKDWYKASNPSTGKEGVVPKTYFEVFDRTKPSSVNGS

Boi2, P39969 = target: T8, Boi2, P39969; settings: median of control spots 1161
T8 sequence (P39969 32-116, looked up): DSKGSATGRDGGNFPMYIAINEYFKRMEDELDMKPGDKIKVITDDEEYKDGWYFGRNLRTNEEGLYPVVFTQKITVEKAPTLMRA

Sla1-2, P32790 = target: T9, Sla1-2, P32790; settings: median of control spots 712
T9 sequence (P32790 60-140, looked up): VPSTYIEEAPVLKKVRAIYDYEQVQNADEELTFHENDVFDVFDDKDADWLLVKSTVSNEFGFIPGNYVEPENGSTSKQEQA

Lsb4, P32793 = target: T10, Lsb4, P32793; settings: median of control spots 397
T10 sequence (P32793 402-468, looked up): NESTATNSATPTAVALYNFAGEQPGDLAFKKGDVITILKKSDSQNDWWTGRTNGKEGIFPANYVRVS

Pin3, Q06449 = target: T11, Pin3, Q06449; settings: median of control spots 2171
T11 sequence (Q06449 53-122, looked up): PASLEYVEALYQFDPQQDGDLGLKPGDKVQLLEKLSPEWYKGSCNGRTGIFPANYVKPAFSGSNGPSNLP

Hof1, Q05080 = target: T12, Hof1, Q05080; settings: median of control spots 4086
T12 sequence (Q05080 590-669, looked up): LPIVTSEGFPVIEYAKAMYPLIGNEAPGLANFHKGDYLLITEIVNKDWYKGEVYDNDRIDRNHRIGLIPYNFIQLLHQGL

Cyk3, Q07533 = target: T13, Cyk3, Q07533; settings: median of control spots 1451
T13 sequence (Q07533 1-83, looked up): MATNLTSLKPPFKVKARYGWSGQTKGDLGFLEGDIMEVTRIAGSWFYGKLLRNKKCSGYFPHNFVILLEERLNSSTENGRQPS

Bzz1-2, P38822 = target: T14, Bzz1-2, P38822; settings: median of control spots 4538
T14 sequence (P38822 568-633, looked up): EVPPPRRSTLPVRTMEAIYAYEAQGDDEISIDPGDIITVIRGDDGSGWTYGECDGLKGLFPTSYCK

Lsb1, P53281 = target: T15, Lsb1, P53281; settings: median of control spots 388
T15 sequence (P53281 45-122, looked up): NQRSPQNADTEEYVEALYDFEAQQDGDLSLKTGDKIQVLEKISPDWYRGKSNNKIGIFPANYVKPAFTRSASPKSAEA

Abp1, P15891 = target: T16, Abp1, P15891; settings: median of control spots 935
T16 sequence (P15891 535-592, looked up): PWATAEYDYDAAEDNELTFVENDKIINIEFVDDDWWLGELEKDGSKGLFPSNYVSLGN

Lsb3, P43603 = target: T17, Lsb3, P43603; settings: median of control spots 406
T17 sequence (P43603 385-451, looked up): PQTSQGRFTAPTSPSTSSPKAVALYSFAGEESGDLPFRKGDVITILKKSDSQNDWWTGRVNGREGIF

Bzz1-1, P38822 = target: T18, Bzz1-1, P38822; settings: median of control spots 4446
T18 sequence (P38822 478-572, looked up): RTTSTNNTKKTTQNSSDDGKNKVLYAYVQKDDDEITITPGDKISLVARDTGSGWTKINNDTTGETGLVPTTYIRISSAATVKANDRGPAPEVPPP

Hse1, P38753 = target: T19, Hse1, P38753; settings: median of control spots 1727
T19 sequence (P38753 208-285, looked up): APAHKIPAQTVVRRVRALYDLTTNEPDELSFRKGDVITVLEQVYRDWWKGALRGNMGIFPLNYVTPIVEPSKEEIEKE

Bbc1, P47068 = target: T20, Bbc1, P47068; settings: median of control spots 796
T20 sequence (P47068 1-78, looked up): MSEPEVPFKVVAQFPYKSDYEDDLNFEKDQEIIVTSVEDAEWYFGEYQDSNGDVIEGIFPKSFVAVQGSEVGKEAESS

Sla1-3, P32790 = target: T21, Sla1-3, P32790; settings: median of control spots 5475
T21 sequence (P32790 344-424, looked up): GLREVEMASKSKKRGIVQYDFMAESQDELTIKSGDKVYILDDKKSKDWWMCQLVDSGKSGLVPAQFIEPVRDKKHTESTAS

Chain of Sho1, P40073 (P40073 287-367): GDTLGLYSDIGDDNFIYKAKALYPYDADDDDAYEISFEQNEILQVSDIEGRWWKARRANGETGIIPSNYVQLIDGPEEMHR

Binder | SPOT intensity (Sho1, P40073) | SPOT intensity (Boi1, P38041) | SPOT intensity (Fus1, P11710) | SPOT intensity (Bem1-2, P29366) | SPOT intensity (Bud14, P27637) | SPOT intensity (Nbp2, Q12163) | SPOT intensity (Myo3, P36006) | SPOT intensity (Rvs167, P39743) | SPOT intensity (GST) | SPOT intensity (Cdc25, P04821) | SPOT intensity (Myo5, Q04439) | SPOT intensity (Pex13, P80667) | SPOT intensity (Bem1-1, P29366) | SPOT intensity (Boi2, P39969) | SPOT intensity (Sla1-2, P32790) | SPOT intensity (Lsb4, P32793) | SPOT intensity (Pin3, Q06449) | SPOT intensity (Hof1, Q05080) | SPOT intensity (Cyk3, Q07533) | SPOT intensity (Bzz1-2, P38822) | other results
IPSRPAPKPPSSASA | 0 | 0 | 1 | 2680 | 0 | 1230 | 575 | 1 | 0 | 0 | 447 | 873 | 2 | 0 | 0 | 21 | 7 | 0 | 3 | 0 | SPOT intensity (Lsb1, P53281): 493; SPOT intensity (Abp1, P15891): 54; SPOT intensity (Lsb3, P43603): 10; SPOT intensity (Bzz1-1, P38822): 6; SPOT intensity (Hse1, P38753): 1; SPOT intensity (Bbc1, P47068): 121; SPOT intensity (Sla1-3, P32790): 29
KFIPSRPAPKPPSSA | 47 | 0 | 0 | 7700 | 0 | 2510 | 527 | 7 | 0 | 0 | 339 | 221 | 0 | 0 | 0 | 78 | 8 | 0 | 0 | 10 | SPOT intensity (Lsb1, P53281): 692; SPOT intensity (Abp1, P15891): 193; SPOT intensity (Lsb3, P43603): 41; SPOT intensity (Bzz1-1, P38822): 0; SPOT intensity (Hse1, P38753): 2; SPOT intensity (Bbc1, P47068): 316; SPOT intensity (Sla1-3, P32790): 199
AVPPPPPPPPLPESL | 0 | 0 | 0 | 2 | 0 | 1 | 490 | 0 | 1 | 0 | 132 | 12 | 0 | 1 | 0 | 0 | 0 | 1 | 2 | 1 | SPOT intensity (Lsb1, P53281): 0; SPOT intensity (Abp1, P15891): 0; SPOT intensity (Lsb3, P43603): 0; SPOT intensity (Bzz1-1, P38822): 0; SPOT intensity (Hse1, P38753): 0; SPOT intensity (Bbc1, P47068): 0; SPOT intensity (Sla1-3, P32790): 3
PPPPPPPPPPPLPQS | 0 | 0 | 2 | 0 | 0 | 0 | 557 | 0 | 0 | 0 | 489 | 3 | 0 | 0 | 0 | 0 | 0 | 1 | 0 | 5 | SPOT intensity (Lsb1, P53281): 0; SPOT intensity (Abp1, P15891): 0; SPOT intensity (Lsb3, P43603): 0; SPOT intensity (Bzz1-1, P38822): 2; SPOT intensity (Hse1, P38753): 0; SPOT intensity (Bbc1, P47068): 0; SPOT intensity (Sla1-3, P32790): 0
LPPPPPPPPPPPLPQ | 0 | 1 | 0 | 6 | 0 | 0 | 230 | 0 | 0 | 1 | 325 | 3 | 0 | 0 | 0 | 0 | 0 | 1 | 1 | 0 | SPOT intensity (Lsb1, P53281): 0; SPOT intensity (Abp1, P15891): 0; SPOT intensity (Lsb3, P43603): 0; SPOT intensity (Bzz1-1, P38822): 3; SPOT intensity (Hse1, P38753): 0; SPOT intensity (Bbc1, P47068): 0; SPOT intensity (Sla1-3, P32790): 4
PPPPPPPPPPLPQSL | 0 | 0 | 0 | 1 | 0 | 0 | 275 | 0 | 1 | 0 | 263 | 28 | 0 | 0 | 0 | 0 | 0 | 5 | 1 | 2 | SPOT intensity (Lsb1, P53281): 0; SPOT intensity (Abp1, P15891): 0; SPOT intensity (Lsb3, P43603): 0; SPOT intensity (Bzz1-1, P38822): 5; SPOT intensity (Hse1, P38753): 0; SPOT intensity (Bbc1, P47068): 0; SPOT intensity (Sla1-3, P32790): 6
